This test has as its target T1, SULU1-coiled-coil2 (GST fusion of human SULU1 amino acids 752-898) (human, UniProt Q5R4F3 752-898 (Pongo abelii entry)).
T1 construct: Bait made as a C-terminal fusion to GST, expressed in E. coli and immobilised for T7 phage display selection; also called Construct 1; SULU1 Coiled-coil2 bait; not shown: glutathione S-transferase (GST) of the pGEX-4T vector
T1 sequence: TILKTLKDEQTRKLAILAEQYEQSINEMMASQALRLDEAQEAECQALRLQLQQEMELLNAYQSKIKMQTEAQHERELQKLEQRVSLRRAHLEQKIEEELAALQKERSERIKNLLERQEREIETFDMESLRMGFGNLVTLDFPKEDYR
The test is described as follows: T7 phage display, H441 cDNA library, immobilised GST-fusion bait. The method, then:
Aliquots of refreshed libraries (10^10–10^12 pfu) supplemented with PanMix and a cocktail of […] inhibitors (Sigma P-8465) were incubated for 1–2 hrs at room temperature with the immobilized baits. Unbound phage was extensively washed (at least 4 times) with wash buffer.
Individual plaques were picked into 25 µL of 10 mM EDTA and the phage was disrupted by heating at 70° C. for 10 min. 2 µL of the disrupted phage were added to 50 µL PCR reaction mix. The insert DNA was amplified by 35 rounds of thermal cycling (94° C., 50 sec; 50° C., 1 min; 72° C., 1 min).

B1: GEK2 coiled-coil domain fragment (residues 677-820 of SEQ ID NO:26) displayed on T7 phage (other)
chain: KESMKQKMEEHTQKKQLLDRDFVAKQKEDLELAMKRLTTDNRREICDKERECLMKKQELLRDREAALWEMEEHQLQERHQLVKQQLKDQYFLQRHELLRKHEKEREQMQRYNQRMIEQLKVRQQQEKARLPKIQRSEGKTRMAM
notes: also called GEK2 CC1; GEK2 cc dom; not shown: T7 phage coat protein of the T7Select1-1b vector
Consider B1, for which the binding result is “binds”.

The values are drawn from patent publication US6656716 (SUGEN, dated 2003).
